Experimental data taken from PMC5000626, “Urinary Dopamine as a Potential Index of the Transport Activity of Multidrug and Toxin Extrusion in the Kidney” (International Journal of Molecular Sciences, 2016).

Tested on: NCCc1ccc(O)c(O)c1
Assay: cells, lysate or membranes
Conditions: other: [3H]dopamine uptake at 1 min, HEK293 cells expressing hMATE2-K, mean ± S.E., n=3; pH 7.4; 37.0 °C

Sequence of hMATE2-K (Homo sapiens) (chain, as listed by the source): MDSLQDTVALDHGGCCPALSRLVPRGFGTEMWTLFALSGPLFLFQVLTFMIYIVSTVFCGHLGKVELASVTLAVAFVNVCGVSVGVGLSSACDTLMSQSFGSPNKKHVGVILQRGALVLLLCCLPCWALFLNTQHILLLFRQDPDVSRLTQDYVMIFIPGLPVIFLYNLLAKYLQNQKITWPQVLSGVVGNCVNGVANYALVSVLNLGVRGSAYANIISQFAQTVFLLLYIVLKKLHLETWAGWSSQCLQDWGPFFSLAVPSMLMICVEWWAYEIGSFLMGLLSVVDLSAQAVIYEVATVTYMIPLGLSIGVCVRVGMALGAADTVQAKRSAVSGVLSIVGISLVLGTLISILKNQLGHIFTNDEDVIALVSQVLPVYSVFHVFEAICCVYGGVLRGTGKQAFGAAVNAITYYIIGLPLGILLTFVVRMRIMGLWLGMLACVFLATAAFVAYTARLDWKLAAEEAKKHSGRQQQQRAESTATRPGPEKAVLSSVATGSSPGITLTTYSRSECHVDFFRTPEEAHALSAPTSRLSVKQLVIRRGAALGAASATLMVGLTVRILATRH

Substance: hMATE2-K (Homo sapiens)
- Km: 2480 ± 650 µM
